According to IntAct's records for PubMed 23918659:

B1: Vacuolar protein sorting-associated protein 33B (Homo sapiens), Q9H267 (parent)
chain: MAFPHRPDAPELPDFSMLKRLARDQLIYLLEQLPGKKDLFIEADLMSPLDRIANVSILKQHEVDKLYKVENKPALSSNEQLCFLVRPRIKNMRYIASLVNADKLAGRTRKYKVIFSPQKFYACEMVLEEEGIYGDVSCDEWAFSLLPLDVDLLSMELPEFFRDYFLEGDQRWINTVAQALHLLSTLYGPFPNCYGIGRCAKMAYELWRNLEEEEDGETKGRRPEIGHIFLLDRDVDFVTALCSQVVYEGLVDDTFRIKCGSVDFGPEVTSSDKSLKVLLNAEDKVFNEIRNEHFSNVFGFLSQKARNLQAQYDRRRGMDIKQMKNFVSQELKGLKQEHRLLSLHIGACESIMKKKTKQDFQELIKTEHALLEGFNIRESTSYIEEHIDRQVSPIESLRLMCLLSITENGLIPKDYRSLKTQYLQSYGPEHLLTFSNLRRAGLLTEQAPGDTLTAVESKVSKLVTDKAAGKITDAFSSLAKRSNFRAISKKLNLIPRVDGEYDLKVPRDMAYVFGGAYVPLSCRIIEQVLERRSWQGLDEVVRLLNCSDFAFTDMTKEDKASSESLRLILVVFLGGCTFSEISALRFLGREKGYRFIFLTTAVTNSARLMEAMSEVKA
partner: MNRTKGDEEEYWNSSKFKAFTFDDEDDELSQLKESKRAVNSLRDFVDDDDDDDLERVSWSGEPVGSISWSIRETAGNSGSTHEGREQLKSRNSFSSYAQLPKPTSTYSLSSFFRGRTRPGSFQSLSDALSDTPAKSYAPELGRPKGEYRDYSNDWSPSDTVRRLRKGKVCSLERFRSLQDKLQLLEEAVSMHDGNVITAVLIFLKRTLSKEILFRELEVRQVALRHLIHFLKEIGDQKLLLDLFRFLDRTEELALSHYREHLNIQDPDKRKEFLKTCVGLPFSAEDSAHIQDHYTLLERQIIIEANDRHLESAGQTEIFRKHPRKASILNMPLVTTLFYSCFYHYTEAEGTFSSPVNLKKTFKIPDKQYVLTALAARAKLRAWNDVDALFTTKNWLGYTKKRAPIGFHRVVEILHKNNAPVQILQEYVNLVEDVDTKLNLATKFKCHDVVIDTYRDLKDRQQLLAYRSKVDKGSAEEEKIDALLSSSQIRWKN

Variants of: B1
Details: with spe39_human VIPAS39, Q9H9C1
For L30P, the “effect of a mutation on the interaction” value was “decreasing interaction”. G249V was tested, and the “effect of a mutation on the interaction” value was “decreasing interaction”.

Variants of: B1
Details: with spe39_human VIPAS39, Q9H9C1
Remark: another data set of the same source
For L30P, the “effect of a mutation on the interaction” value was “disrupting interaction”.

Variants of: B1
Details: with spe39_human VIPAS39, Q9H9C1
Remark: another data set of the same source
For D232A;R233A;D234A, the “effect of a mutation on the interaction” value was “disrupting interaction”. For V235A;D236A;F237A, the “effect of a mutation on the interaction” value was “disrupting interaction”. With V251A;D252A;D253A the “effect of a mutation on the interaction” value was “disrupting interaction”.

Variants of: B1
Details: with spe39_human VIPAS39, Q9H9C1
Remark: another data set of the same source
For D234H, the “effect of a mutation on the interaction” value was “decreasing interaction”. S243F was tested, and the “effect of a mutation on the interaction” value was “decreasing interaction”. For D252E, the “effect of a mutation on the interaction” value was “decreasing interaction”.
